Assay: protease stability score; higher = more stable; yeast display proteolysis, trypsin and chymotrypsin;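 also: log10 excess protease needed over predicted unfolded state with 0 meaning unfolded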

Sequence	protease stability score
DDRELDHAKKVAERNDPDKLRKLADPNAHLTVGDKKIHGMHNAAQKVVSMWEQADHVDIKHVDQHNGRVRVEFRFVVNGREMEMVMRFEVKNGHIKRLQLEFTSEELQKKFDKLAD	0.57
DEDANRKAREYAHAREHGDPRHAREYADPNAEFTVGDKSFHGMQEDVERMERERKEMRVEIKDVQVSAHDGRLTLDLRFVKDNNGQPREVRQNVQFNIENGRATEIDVQETK	-0.214
DDEVKERVTQLLTAMLTNNPDKVQELIDPNAKVHVGDKRVQGEDDIKRVVEEENRQWRMRIKSVSVHVQGEKVRLDIEFVVHVNGEPQNDRVIMELTVHNGRVTDLQLQVDPRKLQERRN	0.966
DQQTDAKEHAETVNKVLTHNDPNKLRELFDEDARMRVGDKEYRGQEQVDHVLKEIADRVDHVDVKLESVSLENGSVKVVIRAVFDDNGRKNDVHIDLVAVIDNGDLYIKEIRFE	0.301
DEHAKKRLEEWLRNRQQGDDERLVQMADPNVRIEYGDKSFKGRDDVREWAQKESKSMDLQLKSVDLKVSGDKVDAKITFTQDENGKPDHATMNLVMKQDNGHIKVLRYEVTK	0.084
DEHDTEVAERALNDLKTGDPDKVTEMADKHVKYVVGEKRIQGRETYAKTVEKERDEIRVDWSVHNIQVHNGKLDVSAEFRFTVNGQPNSDSARWEFTLRNGKIQEVVMKVSDRFLKQMRS	-0.15
DREAKKRADQYMEVIQNGDPEKFKHQADENVRVEVGNHEYHGRESMAKELKKRRDEIRIDIRRYSIDNQGEKVRIEVDAVAQINGRPRTYSYVFEMTFQNGRIKKFTLQISEDDEQNLKS	0.014
DERAREIVTRYFTALERGDPDKARKLADKDVRISVGDTQINGHDQMARTIDKQKKHMRIRFEDVKIHVNNGRADVKFHAVFEHNGKPERKNRTIIFNVHDGRIKEIQAQDDE	0.321
DDRHEMKTALKQLIDAIRQGNPDTIMSLLDPNVTFTYGDQNIRGREHVNTELVHRRNRVDNVHVNLQDIDQDGEKLHARFQMVLRRNGRNDTRDMVLVAQVHNGKARIRRLHHG	0.557
DEEEVNKALERIRQVLEDGNPDENMKLMDKDVRVEIGDKTWHGRDEAHKAMRELNENVDHFQFDRLHHEGDRAKIDVHLEDNGKKDRVTFEFKIENGRIQHARVQTS	-0.335
ERERNQKLAEIFAQAVETGDPEQAQKMAPPDVKAQVGDHQFRGREEIHKMIETIRRRADHARLKDMTVDGDKITIVVQFNVNGKEVNVVFHITVRNGVATEIELRSK	1.26
DEEAREILRRFFTALNTNDEDQLVELVDKDVKIQVGDKEIHGREELKEHQVESYRRSRVDFRVTDIKASGDKVTAKIVVSRESDGQPRKTTQRMEFRFENGHMKHVHEDSDG	0.064
DDHNRAENFLKEVMRAMKNNDPQTLKELADPNVTVEVGDKEIHGQEEFHKWAETLNHNVDSLDIQFKEIRLRPGRAEAIVLITEDHNGRKDRKELNMVARVKGDDIHVVSMHQK	0.828
DEEQAKKMEHDAKNNNFEKMAEQADPNATAQYGDHRVRGRHEVIDLITHWIEKIDRIEVDSIRVHNGRLEMHFTFEVDGVQVDVVMKAELQNGSLKVLVVTATSEEQQKRLKQAEG	0.234
DHEDMEKLAKDLNKAIEQGDPDRMRDMADENVDAKIGDKVFHGDENVRKMIKSIRDHADHLRVKDWRVKGEKIVIDVHVNHNGKSAKLDLKAQAHNGTFTTLKIDPQFQRSMES	-0.234
DEENEDLLRKFVEALERNDEDKIMEQADPNAELRYGDKHIHGREKMRELVQNREKELRLDVKDFEVDVNNGHARITVENVQETNGRPTTTRYRIDASIHNGRLQKVNITSDK	0.287
DEEDQERLEDFLRALKKGDEERLKELVDPNAQFEIGDTTYHGREHFLHTMRRKNEEIRVERDFHTVRAENGHVEMHFHAQENHNGRPRTFTAHATAVIHNGRLKSFVLKVDG	-0.026
EDEVNKILEDVATAIRTGDPDRVVENLDPNAKVQVGDKTLDGQKEVREFFERNQREASVRLHVTSVHVNGDKVKMKANYQQNRNGNPDFKDVDVTAHAHNGKLKVMEHRRDG	-0.451
DESLEERLDTLRKVEEQGDEDTAREQADPNVKIVVGDRRVHGMDEQLEELRRRVKEARVTIESLSVDAHGDKVDVKVRLTFTIDGRPASVNLHQHYQLQNGKFKHVEARFSEEDRDELQT	0.846
DHEESKDIAEKAVKAIETGDPDKFVSNMDKDASARIGDKTYHGRENLRKAMEDFRNQVDHLRVQSYKVSGNTQKLDMRADFNGRTRVITVVMQMENGRVSFIRVHIE	-0.359
DEKKIYDLLKKMVEAYVSGNAEEVRKLLKDDGTLDVGDQQYHGVEQVTKAAEEFQKYGVELHLTDYRFDGDRVDVKAVAHLGGNTWEFTVTVQADGGKVDRLVFHVSEEAVKYIQKG	1.28
DHDAAHQFKKMLDALRTNDEEHARRMADPNAKFQIGDKTYKGMDTFIRQLVREAREIKIHIDDIKVHDKGDKAVLNVNVKFSKNGEPDSRVLNFEFRAHNGHLKEIVVRDDK	0.757
DNEKALERAEEAARAVARGNEDELRKLAPPDVSAQYGDHRINGMDQVVEQIKEMRRAVDHIKIQTIRKNGNSVTLTVELTYNGQQMHMHVEVEVHNGELKHVRMHVTDEERWRRQES	0.855
DEKREQELAKKFADVFQRNNESELRKMIDENARYEIGDKTYRGTKAVKHVMKKVHDRADHVQVENFKAHNGTMELYLRYHVNGQDVRIIIELELRNGKVQHARYDVTSEEDRHNVEN	0.041
DETQMKHLAEEFNKAQKRGNEEKLRELIDKDVTMKVGDKEVHGRERVADKMRKMIERADSISIRDVKSQGDRAEIDMEYRVDGRHRVVIVILRFSNGRIVYAEFQSS	1.08

Sequence	protease stability score
DHQELAEKWFRTFVTNQERGDEESLVKMADKDVRLHIGDKTIHGREQFHHWIQELRRRVDHQSMTVRHIDVQGDKIRIDAEAVFNVNGRNDKFKIDIEAEIQGDKVVLKRIIFN	1.63
DEEAQKRAQTFFHILEHGDPKKLSKLFDKDAKFVVGEQRINGMQQYEQWFRDVYKKIRVTMKLVSVHVTGNKIDIKAKVEWHVNGRPLTFDLDIKINFHNGKMKEAVFHVDSDFLRKLKR	0.63
DEDENNKILESINTNDSKHNKDLLDKDVTIRYGDKQVQGREEALEFLDTWNKRVDHFRVHHMTVKGDKLRMRFEIVFNGVTVEVSLSAKVENGRMKHFHLDARDEKVRHRLKRMFG	0.108
DEHIQKQFQKILEAINQNNPEQFRRLVDKHAQITIGDEVVHGRDDAVRTLEKKMREMKVEIEVDSVNVQGEKLTATLKVELDINGKPNTDTVVVQMRAENGKLKSAHYRVDPTTRRKVKS	-0.179
EKEIVNNFKDWVRALTTGDEDRLRNYADPNAQFVVGEKRFHGMDDYVEDMRRRRTEIRVEIRVHHMNSTGEKIEIHAEQTHEHNGKPETHEFKMKAEVHNGRHKSVTQHDDG	0.201
DSERRQREAENFFKNLQTGNKHEFEKLFPPDVRAQVGEKEIHGREEAQKWWKNIHDRADHMQIDHFDVDGNKITFDMRMNVDGHEIRMRLTIRLENGQYRSLTAEVRDEDAERRLKS	0.672
EEHQTKEWSKMLEVMTKGDKDKFRERADPNVRARVGDRTLHGWENVVRTELRRQHEISIDIHEMDVRSEGDKVVARYEFRQNQNGRPRRRDVTVTFRLHNGRLQEQHVQDTG	0.148
DKNNLKRYDKLLKILQTGDEHKAKKLADPNVKVKVGDKEIKGWDRFVHESAKRWREARIELKIKHVDVSGDKVTIDYEAEVEVNGKPIRYTATFRFVVHNGRIKTINFSMDENQRETVKR	0.007
DEHARSVMRQFVHALNTGDPDEASRQVDKNVKATYGDKSVHGRESVKEWLEKLVKRMRVEVDLKTVHAQGDTVTAKAHLTAEVNGRPFKVDVHIEATVQNGKIKELVVDFDEHFTEQVES	2.56
DEKEYAEQFFRHMEEIYQNGDEDRAQELFDPNARMEVGDKEVHGNEKFREEIHKIKETSDRFSIRVKEIDVHGDKIVVEAERSFEHNGQRRSEVYTVRMVIENGQAKIKSAHHK	0.235
DEENTKVAHEWLRNLERNDPKKLNELADPNAHFNVGDKQVQGMDEFERRIEDKKKEMRMKIDDYKARVHNGHVRVDVIVVIDHNGKPDKKRNVQFFDMENGRISRINQQDTG	-0.164
DEELQDTAHKLLKLRQRGNWKHVQEMFDENARRIVGDKTLTGMTEIAEEVKREHEQWHLKITDLKASVEGDKVDIKFHAVFDVNGHPVTVNAMVVIVNQGDKAKRIQIRIPESVLNRINQ	0.292
DEKKLKELAEELVKADRTGNPDMIKKLGKPDVEFHVANVTMHGSEQVYKYYEKVQRQGNEVHIKRQEVRGDHVEVHYTVKVGGTEVEVTMRLHAKDHKVDKAEAHFNKEYLDHVKKG	0.413
DEEERRRLAKRVIDAMNTGDPDQVVEQIDPNARVEIGDKVYHGRDKAKKAAEERKRQADHVKLKSLEVHGNKVHARLIFNRNGENRTVLLRIKVSNGKALEIRFDHQ	0.552
DDDNLKRQNEDVNRAVQHGDEKKVADMADPNVKVYYGDKEIHGREKVKEWWKRLADRADSFTVVDIELQGEKIRVRVKANIDGKHVDMEFEAHASNGRVKKMHINPDQFRQLRS	0.445
DEEQLKEYTKEMEHNDEEQFSRMMDKDARVIVGDKTFTGREDAATMLLLIRRRVDHIEIRKITIQGDHVVVHQVVQVNGKEAEFEREVHVKNGHIKEVHIQARDEDDERVLHQAMD	0.468
DEEKLHTIAKKAADIVQSGDEEKIIRLADPNAEMRIGDQELHGMDDAKRVLHEFMKRVDHVSVKTWHVQGNRIRLDVKFEVNGRDIRVELDITIENGEIDSMEFDPRARDAQKT	0.183
DEEELSHFLDVVRTGDFHEMAKMVDPNARINVGDKRVHGREDAETLIKEIQKRADHVEVDSYSIEGDKVRVLMRVNVNGVEVVFILVVQLNNGRIVHRQVDVTNEELEKQVRHANS	0.659
EEEQLKILQELRKALQDNDSERMKELFDEDVKVQVGDKTITGREKVVDDLRRKAEEQRIQYVTMSARAENGHITVRLQFVNTHNGRPHRRERKLDITLHNGKFKSARYDNDG	0.842
DEENLEIAKDLIRAQETGDEERIQNLLDPNVKIDVGDKSIHGREHLRKTQQEQKRNMRFDVDSVENKVHNGQVRVDAHVRERHNGQPTTKRYTLHMHFHNGKVERIRLQDKG	0.318
DEEREAKEWMELFEDQFRQGNEHEVNKLMDKDARIHVGEKHVSGRNQAKKELKEHMKRADHIHIQLHEVDSRPGRMILDFTINQQVNGRRSSDKVRARFSKRNGRWYQESETQG	0.104
DDDARERVDELLEVEQTGNREDIKRLVDPNAKVQVGDDEYHGMEVYAETVVKKRKEINIELRFKDMQVHNGRANADVEAVYDHNGRPSRMRFVLHFVIRNGKFKEIRLREDR	1.2
DEHSDAKRVLEELSKAMENGDEQRVEDQLDENVRINVGENHYHGREHARLWFKQIVDHVDHVRDSMEDYRNQGENFVYVMSVVYQSNGQEKSIRIVYVMKNHNGTVRMVNVHEG	1.02
DREDLAREMVERLEDIMKHNNEKELVNQMDENVRMTIGDKEYEGREAATKEAHDLFRRADHLRLSVETFNVQGDKAVITFQVVFNHNGRKSHDRVILDFRISGDKVKLVSQTKG	0.509
DEEAVNIHKTILEAEQSGDPDKFRQNVDPNVRYRYGDKEIHGREQAAERVKEKRDQARFQFDSIHIKVHGDKARAHFDFVVDHNGNPHRMSFTVVFNAHGDKLEFEIIKFDPRMKKELDS	0.198

Reference: the NTF2 design screens of Basanta et al. (2020)
